Earlier results, collected in article PMC8828474.

Molecular target: Spike RBD (SARS-CoV-2) (UniProt P0DTC2)

For bamlanivimab, the Kd is given as 0.8 nM.
